Consider six molecules from patent publication US20220288216A1 (STARPHARMA, published 2022).

The target of assay [1] is T1, HER2 (human epidermal growth factor receptor 2) on cells (human, UniProt P04626 23-1255).
T1 construct: whole, on cells; One molecule for HER2 on all HER2-positive human cell lines; also called ERBB2; HER2 WT
Put plainly: flow cytometry (Cy5), SKOV-3 cells, 3.33 nM, 37 C, 24 h. For orientation: In flow cytometry, cells or beads pass a laser one at a time.

For assay [2], the target named is T1, HER2 (human epidermal growth factor …). Put plainly: flow cytometry (Cy5), MDA-MB-231/HER2 cells, 3.33 nM, 37 C, 24 h.
The target is the same in assay [3]. Put plainly: flow cytometry (Cy5), MDA-MB-231/HER2 cells, 0.5 h.

B1: Nanobody-PEG2-TCO-MePhTz-PEG4-PEG24-CO[N(PN)2][Lys]8[(α-NH-Cy5)1(α-NH-Glu-VC-PAB-MMAE)7(ε-NH-COPEG1100)8], Compound 41 (VHH)
VHH: EVQLVESGGSLVQPGGSLRLSCAASGFTFDDYAMSWVRQVPGKGLEWVSSINWSGTHTDYADSVKGRFTISRNNANNTLYLQMNSLKSEDTAVYYCAKNWRDAGTTWFEKSGSAGQGTQVTVSS
modifications: C-terminal unnatural amino acid (# in the printed sequence; p-azido-phenylalanine) clicked to DBCO-PEG12-TCO and through it to the tetrazine G3 lysine dendrimer carrying Cy5, Glu-VC-PAB-MMAE and PEG1100
notes: Anti-HER2 nanobody 2D3 conjugated to a G3 dendrimer; also called compound 41 (targeted); targeted dendrimer
On to B1, for which the results for the “fold fluorescence against compound 36 (untargeted control)” value in assay [1] and in assay [2] were roughly 16 fold and roughly 9 fold, respectively.

B2: BHA[Lys]8[((α-NH-COPEG24NH-COPEG4(PhMeTz) TCO-PEG3NH-COPEG24NH-Glu-DBCO/N3-Nanobody)1(α-Lys(α-NHCy5)(ε-NHDFO))1(α-NH2)6)(ε-NH-COPEG1000)8], G3, Compound 89 (VHH)
VHH: B1 VHH
modifications: unnatural amino acid (#; p-azido-phenylalanine) clicked to DBCO-Glu-NHPEG24CO-NHPEG3-TCO and through it to the tetrazine G3 BHA-lysine dendrimer carrying Cy5, DFO and PEG1000
notes: Single-nanobody G3 conjugate; also called BHA-G3-PEG1000 + NB
Regarding B2, the “cellular association value (legend says percent; value exceeds 100, unit unclear)” value in assay [3] was 218.

B3: BHA[Lys]4[((α-NH-COPEG24NH-COPEG4(PhMeTz) TCO-PEG3NH-COPEG24NH-Glu-DBCO N3-Nanobody)1(α-Lys(α-NHCy5)(ε-NHDFO))1(α-NH2)2)(ε-NH-COPEG1000)4, G2, Compound 86 (VHH)
VHH: B1 VHH
modifications: unnatural amino acid (#; p-azido-phenylalanine) clicked to DBCO-Glu-NHPEG24CO-NHPEG3-TCO and through it to the tetrazine G2 BHA-lysine dendrimer carrying Cy5, DFO and PEG1000
notes: Single-nanobody G2 conjugate; also called BHA-G2-PEG1000 + NB
Consider B3, for which the “cellular association value (legend says percent; value exceeds 100, unit unclear)” value in assay [3] is 190.

B4: BHA[Lys]32[((α-NH-COPEG24NH-COPEG4(PhMeTz) TCO-PEG3NH-COPEG24NH-Glu-DBCO/N3-Nanobody)1-4(α-NHCy5)1(α-NH-COPEG9-Val-Ala-PAB-P-Trigger-NMeCO-CTX)22) (α-NH2)5-8 … (VHH)
VHH: B1 VHH
modifications: unnatural amino acid (# in the printed sequence; p-azido-phenylalanine) after the last nanobody residue clicked to DBCO-Glu-NHPEG24CO-NHPEG3-TCO and through it to the tetrazine G5 BHA-lysine dendrimer carrying Cy5, cabazitaxel and PEG1100
notes: 1-4 nanobodies per dendrimer as printed; also called compound 78 (targeted); 78 (2D3, G5, PEG1000, CTX)
Consider B4, for which the “fold fluorescence against compound 70 (untargeted control)” value in assay [1] was roughly 160 fold; in assay [2], roughly 340 fold.

B5: BHA[Lys]16[((α-NH-COPEG24NH-COPEG4(PhMeTz) TCO-PEG3NH-COPEG24NH-Glu-DBCO/N3-Nanobody)1(α-Lys(α-NHCy5)(ε-NHDFO))1(α-NH2)14(ε-NH-COPEG1000)16], G4, Compound 90 (VHH)
VHH: B1 VHH
modifications: unnatural amino acid (#; p-azido-phenylalanine) clicked to DBCO-Glu-NHPEG24CO-NHPEG3-TCO and through it to the tetrazine G4 BHA-lysine dendrimer carrying Cy5, DFO and PEG1000
notes: Single-nanobody G4 conjugate; also called single 2D3-dendrimer conjugate; MFI Single
As for B5, in assay [3], the “cellular association value (legend says percent; value exceeds 100, unit unclear)” value came to 157.

B6: BHA[Lys]32[((α-NH-COPEG24NH-COPEG4(PhMeTz) TCO-PEG3NH-COPEG24NH-Glu-DBCO/N3-Nanobody)1(α-Lys(α-NHCy5)(ε-NHDFO))1(α-NH2)30(ε-NH-COPEG1100)32], G5, Compound 92 (VHH)
VHH: B1 VHH
modifications: unnatural amino acid (#; p-azido-phenylalanine) clicked to DBCO-Glu-NHPEG24CO-NHPEG3-TCO and through it to the tetrazine G5 BHA-lysine dendrimer carrying Cy5, DFO and PEG
notes: Single-nanobody G5 conjugate; also called BHA-G5-PEG1000 + NB
Turning to B6, the “cellular association value (legend says percent; value exceeds 100, unit unclear)” value in assay [3] stood at 165.
